The values that follow come from CN114181311A (dated 2022).

Assay [1] has as its target T1, His-DLL3胞外区蛋白 (Human DLL3 Protein, His Tag, ACRO DL3-H52H4) (human, UniProt Q9NYJ7 27-492).
T1 construct: extracellular domain; Bought protein; also called DLL3-His; DLL3抗原; not shown: His tag
T1 sequence (looked up): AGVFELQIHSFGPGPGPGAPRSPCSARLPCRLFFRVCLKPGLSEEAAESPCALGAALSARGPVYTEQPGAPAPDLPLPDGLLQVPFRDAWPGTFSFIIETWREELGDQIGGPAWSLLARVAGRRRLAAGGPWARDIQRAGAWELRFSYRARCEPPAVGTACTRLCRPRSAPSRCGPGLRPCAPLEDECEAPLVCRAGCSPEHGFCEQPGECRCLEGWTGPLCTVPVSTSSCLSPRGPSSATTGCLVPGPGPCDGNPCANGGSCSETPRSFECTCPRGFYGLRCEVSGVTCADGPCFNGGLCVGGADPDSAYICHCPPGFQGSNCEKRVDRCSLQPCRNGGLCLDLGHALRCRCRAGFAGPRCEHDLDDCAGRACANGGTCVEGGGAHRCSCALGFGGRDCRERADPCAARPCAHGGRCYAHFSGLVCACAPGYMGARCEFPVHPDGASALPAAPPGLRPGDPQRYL
Kind of assay: phage ELISA, scFv shown on M13 phage, coated DLL3-His 1 ug/ml, anti-M13-HRP. For orientation: An ELISA detects its analyte on a solid surface through an enzyme-linked reagent.

The target in assay [2] is T2, BSA(牛血清白蛋白) (bovine, UniProt P02769 25-607). Nature of the assay: ELISA, periplasmic extract with soluble scFv on coated BSA, anti-c-myc-HRP detection.
T2 sequence (P02769 25-607 limits assumed): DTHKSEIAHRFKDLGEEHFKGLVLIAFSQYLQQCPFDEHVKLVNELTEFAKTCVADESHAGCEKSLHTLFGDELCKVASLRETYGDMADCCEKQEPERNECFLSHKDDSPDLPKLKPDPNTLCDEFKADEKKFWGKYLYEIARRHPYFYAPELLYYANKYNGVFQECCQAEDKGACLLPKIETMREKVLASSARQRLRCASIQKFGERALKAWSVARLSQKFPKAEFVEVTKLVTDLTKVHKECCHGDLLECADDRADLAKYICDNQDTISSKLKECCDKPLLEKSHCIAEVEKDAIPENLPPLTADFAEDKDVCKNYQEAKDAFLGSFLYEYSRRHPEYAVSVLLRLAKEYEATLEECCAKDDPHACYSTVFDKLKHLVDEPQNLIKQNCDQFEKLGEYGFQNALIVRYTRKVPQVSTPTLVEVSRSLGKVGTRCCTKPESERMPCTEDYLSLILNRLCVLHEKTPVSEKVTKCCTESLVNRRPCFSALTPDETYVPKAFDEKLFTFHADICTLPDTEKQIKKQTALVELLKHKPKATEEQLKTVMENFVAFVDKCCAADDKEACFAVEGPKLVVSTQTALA
The target in a further assay is T3, 小细胞肺癌细胞系SHP-77上表达的DLL3抗原 (UniProt Q9NYJ7 27-618).
T3 construct: whole, on cells; Endogenous DLL3 on SHP-77 cells; also called DLL3 on SHP-77 cells
T3 sequence (looked up): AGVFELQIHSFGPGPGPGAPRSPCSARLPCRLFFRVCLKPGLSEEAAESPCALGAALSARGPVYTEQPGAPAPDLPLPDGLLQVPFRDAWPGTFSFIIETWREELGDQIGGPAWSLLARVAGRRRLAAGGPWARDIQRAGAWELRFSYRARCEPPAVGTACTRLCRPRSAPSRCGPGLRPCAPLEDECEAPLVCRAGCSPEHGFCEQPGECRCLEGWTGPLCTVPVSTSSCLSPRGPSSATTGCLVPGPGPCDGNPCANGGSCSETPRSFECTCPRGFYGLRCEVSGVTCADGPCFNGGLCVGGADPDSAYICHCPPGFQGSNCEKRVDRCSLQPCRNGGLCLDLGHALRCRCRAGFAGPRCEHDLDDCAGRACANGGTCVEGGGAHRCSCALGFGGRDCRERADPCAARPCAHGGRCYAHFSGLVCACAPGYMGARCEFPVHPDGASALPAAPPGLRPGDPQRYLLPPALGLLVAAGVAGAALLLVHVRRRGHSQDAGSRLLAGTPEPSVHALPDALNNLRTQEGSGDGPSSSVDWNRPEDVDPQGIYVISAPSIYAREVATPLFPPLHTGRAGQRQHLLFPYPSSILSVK
Kind of assay: flow cytometry on SHP-77 cells, PE anti-human Fc detection. Background: Flow cytometry measures light scatter and fluorescence of single cells or particles in a stream.

Assay [3] concerns the target T2, BSA(牛血清白蛋白). Nature of the assay: ELISA, 293T culture supernatant on coated BSA, anti-human IgG-Fc-HRP detection.
Assay [4] concerns the target T1, His-DLL3胞外区蛋白 (Human DLL3 Protein, His …). Nature of the assay: ELISA, 293T culture supernatant, coated DLL3-His 1 ug/ml, anti-human IgG-Fc-HRP.

B1: 抗DLL3 scFv G8 (G8-scFv) (scFv)
scFv: QVQLQQSGPGLVKPSQTLSLTCAISGDSVSSDSVAWSWIRQSPSRGLEWLGRTYYRSKWYYDYAASVKSRISINPDTSKNQFSLQLNSVTPEDTAVYYCAREPLRYGSSWWDAFDIWGQGTMITVSSGSASAPTLGGGGSGGGGSGGGGSQSALTQPPSVSGSPGQAVTISCTGTSSDVGRYNYVSWYQQHPGKVPKLILFDVSSRPSGVSHRFSGSKSGNTASLTISGLQAEDEADYYCTSYRSGSEVFGGGTKLTVL
notes: Fully human scFv from a phage library; also called 抗DLL3阳性克隆G8; 抗DLL3可溶性抗体G8
As for B1, the values for the binding result (in assay [1]; in the assay with BSA(牛血清白蛋白) [2]) were “binds” and “no binding”, respectively.

B2: G8 scFv-hFc (Fc fusion)
chain: QVQLQQSGPGLVKPSQTLSLTCAISGDSVSSDSVAWSWIRQSPSRGLEWLGRTYYRSKWYYDYAASVKSRISINPDTSKNQFSLQLNSVTPEDTAVYYCAREPLRYGSSWWDAFDIWGQGTMITVSSGSASAPTLGGGGSGGGGSGGGGSQSALTQPPSVSGSPGQAVTISCTGTSSDVGRYNYVSWYQQHPGKVPKLILFDVSSRPSGVSHRFSGSKSGNTASLTISGLQAEDEADYYCTSYRSGSEVFGGGTKLTVL
notes: Expressed in 293T cells and tested as culture supernatant; also called G8 scFv-hFc重组蛋白; not shown: human IgG1 Fc segment from the mammalian expression vector PUTAM003
Consider B2, for which the results for the binding result (with 小细胞肺癌细胞系SHP-77上表达的DLL3抗原; with BSA(牛血清白蛋白) [3]; in assay [4]) were “binds”, “no binding” and “binds”, respectively.

B3: 抗DLL3 scFv A7 (A7-scFv) (scFv)
scFv: QVQLVQSGAEVKKPGASVKVSCKASGYTFTSYYMHWVRQAPGQGLEWMGIINPSGGSTSYAKKFQGRVTMTRDTSTSTVYMELNRVTSDDTAVYYCARGGGVTGFDYWGQGTLVTVSSGSASAPTLGGGGSGGGGSGGGGSDIQMTQSPSSLSASLGDRVTITCRASQTVRTYLNWYQQKPGKAPNLLIYGASSLQSGVPSRFSGSGSGTDFTLTINSLQPEDFGTYYCQQSDTPPLTFGGGTKVEIK
notes: Fully human scFv from a phage library; also called 抗DLL3阳性克隆A7; 抗DLL3可溶性抗体A7
Regarding B3, the binding result in assay [1] was “binds”; in the assay with BSA(牛血清白蛋白) [2], “no binding”.

B4: A7 scFv-hFc (Fc fusion)
chain: QVQLVQSGAEVKKPGASVKVSCKASGYTFTSYYMHWVRQAPGQGLEWMGIINPSGGSTSYAKKFQGRVTMTRDTSTSTVYMELNRVTSDDTAVYYCARGGGVTGFDYWGQGTLVTVSSGSASAPTLGGGGSGGGGSGGGGSDIQMTQSPSSLSASLGDRVTITCRASQTVRTYLNWYQQKPGKAPNLLIYGASSLQSGVPSRFSGSGSGTDFTLTINSLQPEDFGTYYCQQSDTPPLTFGGGTKVEIK
notes: Expressed in 293T cells and tested as culture supernatant; also called A7 scFv-hFc重组蛋白; 抗DLL3单链抗体(scFv-hFc); not shown: human IgG1 Fc segment from the mammalian expression vector PUTAM003
Turning to B4, the binding result with 小细胞肺癌细胞系SHP-77上表达的DLL3抗原 is “binds”; with BSA(牛血清白蛋白) [3] it was “no binding”; in assay [4], “binds”.
